Assay results: patent US20070104732A1 (published 2007)

Assays:
Assay in all cases: cell-based or functional assay
[1] = target: EGFR-Ecoil pseudoreceptor (UniProt P00533)
[2] = target: cellular proteins integrins
[3] = target: EGFR-Ecoil pseudoreceptor (UniProt P00533 646-1210)

K-coil soluble peptide showed an inhibition of AdFK4m/GFP mediated GFP gene transfer in 293E cells after pre-incubation with 2 ug K-coil soluble peptide, MOI 0.05 [1] of 80%.

“Modified fiber FK4mm-RGD of AdFK4mmRGD/GFP (S->E at aa 408, P->A at aa 409, RGD motif in the HI-loop, K4 K-coil at the C-terminus) (from UniProt P11818 1-581)” was tested, and the transduction efficiency of AdFK4mmRGD/GFP in HeLa-rtTA and A549-tTA cells relative to AdFK4m/GFP (GFP expression, flow cytometry) [2] was 3 to 6 fold and the transduction of 293E cells by AdFK4mmRGD/GFP relative to AdFK4m/GFP (GFP expression, flow cytometry) [2] was 2 to 3 times.

B1: Chimeric adenoviral fiber FK4m of AdFK4m/GFP (S->E at aa 408, K4 K-coil at the C-terminus) (other)
chain (part 1 of 2): MKRARPSEDTFNPVYPYDTETGPPTVPFLTPPFVSPNGFQESPPGVLSLRLSEPLVTSNGMLALKMGNGLSLDEAGNLTSQNVTTVSPPLKKTKSNINLEISAPLTVTSEALTVAAAAPLMVAGNTLTMQSQAPLTVHDSKLSIATQGPLTVSEGKLALQTSGPLTTTDSSTLTITASPPLTTATGSLGIDLKEPIYTQNGKLGLKYGAPLHVTDDLNTLTVATGPGVTINNTSLQTKVTGALGFDSQGNMQLNVAGGLRIDSQNRRLILDVSYPFDAQNQLNLRLGQGPLFINSAHNLDINYNKGLYLFTASNNSKKLEVNLSTAKGLMFDATAIAINAGDGLEFGSPNAPNTNPLKTKIGHGLEFDSNKAMVPKLGTGLSFDSTGAITVGNKNNDKLTLWTTPAPEPNCRLNAEKDAKLTLVLTKCGSQILATVSVLAVKGSLAPISGTVQSAHLIIRFDENGVLLNNSFLDPEYWNFRNGDLTEGTAYTNAVGFMPNLSAYPKSHGKTAKSNIVSQVYLNGDKTKPVTLTITLNGTQETGDTTPSAYSMSFSWDWSGHNYINEIFATSSYTFSYIAQE
chain (part 2 of 2): KVSALKEKVSALKEKVSALKEKVSALKE
B1 was tested, and the “transduction efficiency (GFP expression, flow cytometry) of AdFK4m/GFP in 293E cells compared with 293 cells, MOI 0.01” value [3] was 7 fold, the “transduction efficiency (GFP expression, flow cytometry) of AdFK4m/GFP in 293E cells compared with 293 cells, MOI 0.05” value [3] was 24 fold and the “transduction efficiency (GFP expression, flow cytometry) of AdFK4m/GFP in 293E cells compared with 293 cells, MOI 0.5” value [3] was 11 fold. For the same molecule, the “transduction efficiency (GFP expression, flow cytometry) of AdFK4m/GFP in 293E cells compared with 293 cells, MOI 0.8” value [3] was 8 fold.
